Source: publication PMC4716839 (eLife, 2015)

B3: mouse Rpa heterotrimer (Rpa70, Rpa32, Rpa14) (complex)
chain 1: MVGHLSEGAIEVMIQQENTSIKPILQVINIRPISTGNRSPRYRLLMSDGLNTLSSFMLATQLNTLVEGGQLASNCVCQVHKFIVNTLKDGRKVVVLMDLEVMKSAEDVGLKIGNPVPYNEGYGQQQQQQQQQQQQAVPSPASAATPPASKPQPQNGSLGMGSTAAKAYGASKPFGKPAGTGLLQPSGGTQSKVVPIASLTPYQSKWTICARVTNKSQIRTWSNSRGEGKLFSLELVDESGEIRATAFNEQVDKFFPLIEVNKVYYFSKGALKIANKQFSAVKNDYEMTFNNETSVLPCEDGHHLPTVQFDFTGIGDLESKAKDALVDIIGICKSYEDSIKITVKSNNREVAKRNIYLMDMSGKVVTTTLWGEDADKFDGSRQPVMAIKGARVSDFGGRSLSVLSSSTVIVNPDIPEAYKLRGWFDSEGQALDGVSISDHRSGGAGGGNTNWKTLHEAKSENLGQGDKADYFSTVAAVVFLRKENCMYQACPTQDCNKKVIDQQNGLYRCEKCDREFPNFKYRMILSANIADFQENQWVTCFQESAEAILGQNTMYLGELKEKNEQAFEEVFQNANFRSFTFRIRVKLETYNDESRIKATVMDVKPVDFRDYGRRLIANIRKNM
chain 2: MWNSGFESFSSSTYGGAGGYTQSPGGFGSPTPSQAEKKSRVRAQHIVPCTISQLLSATLTDEVFRIGDVEISQVTIVGIIRHAEKAPTNIVYKIDDMTAPPMDVRQWVDTDDASGENAVVPPETYVKVAGHLRSFQNKKSLVAFKIIPLEDMNEFTAHILEVVNSHMMLSKPNSQASAGRPSMSNPGMSEPGNFSGNNFMPANGLTVVQNQVLNLIKACPRPEGLNFQDLRSQLQHMPVPSIKQAVDFLCNEGHIYSTVDDDHFKSTDAE
chain 3: MEDIMQLPKARVNASMLPQYIDRPVCFVGKLEKIHPTGKMFILSDGEGKNGTIELMEPLDEEISGIVEVVGKVTAKATVLCASYTLFKEDTNRFDLELYNEAVKIINELPQFFPVGLPQHE
notes: Rpa70 subunit of Replication Protein A, mouse; Rpa32 subunit of Replication Protein A, mouse; Rpa14 subunit of Replication Protein A, mouse; The GST tag on Rpa32 is called cleavable; also called heterotrimeric Rpa; full-length Rpa; source: Hi-5 insect cells co-infected with two baculoviruses, purified as described (Fan and Pavletich, 2012); copies: + +
B4: GST-tagged mouse Dna2 α1OB (α1 helix and OB domain, residues 1 to 122) (domain or fragment, UniProt Q6ZQJ5 1-122, looked up)
chain: MEPLDELDLLLLEEDGGAEAVPRVELLRKKADALFPETVLSRGVDNRYLVLAVETSQNERGAEEKRLHVTASQDREHEVLCILRNGWSSVPVEPGDIVHLEGDCTSEPWIIDDDFGYFILYP
notes: Dna2 nuclease-helicase, mouse, residues 1-122 (α1 helix and OB domain); full-length mouse Dna2 has residues 1 to 1062; Cloned into a pGEX-4T vector; also called GST-α1OB

Columns and labels:
Details in all cases: both partners purified
[1] = biological target: T1, human Rpa70NAB (residues 1–422) (human, UniProt P27694 1-422); assay: ITC; MicroCal ITC200, 20°C, 20 mM HEPES, 80 mM NaCl, 0.2 mM TCEP, pH 7.5; human polypeptides
T1 construct: Rpa70, human, residues 1-422 (OBN, DBD-A, DBD-B); source: E. coli BL21DE3, purified

[2] = biological target: T2, human Rpa70N (OBN domain of Rpa70, residues 1–120) (human, UniProt P27694 1-120); assay: as above
T2 construct: Rpa70, human, residues 1-120 (OBN domain); Used in ITC and in the co-crystals; also called Rpa70 OBN; RPA70 OBN; source: E. coli BL21DE3, purified

[3] = biological target: B4; assay: pull-down; GST pull-down as a1 with (dT)24 or (dT)8 ssDNA added; concentrations shown in the figure; bound Rpa70 quantified relative to the lane without DNA
[4] = biological target: B3; assay: pull-down; GST-tagged mouse Dna2 fragment or GST (30 μM in Figure 4A) with an equal molar amount of Rpa or Rpa fragment; 20 mM Tris-HCl, 80 mM NaCl, 0.3 mM TCEP, 2% glycerol, pH 8.0, 4°C, 30 min, then glutathione beads; eluted with 20 mM glutathione, SDS-PAGE
[5] = biological target: T3, mouse Rpa70NAB (Rpa70 fragment with the OBN, DBD-A and DBD-B domains, residues 1 to 431) (mouse, UniProt Q8VEE4 1-431); assay: as above
T3 construct: Rpa70, mouse, residues 1-431 (OBN, DBD-A, DBD-B); not shown: His6-SUMO, N-terminal, cleaved

[6] = biological target: T4, mouse Rpa70AB (residues 191–431) (mouse, UniProt Q8VEE4 191-431); assay: as above
T4 construct: Rpa70, mouse, residues 191-431 (DBD-A and DBD-B); also called Rpa70AB polypeptide; not shown: His6-SUMO, N-terminal, cleaved

[7] = biological target: T5, mouse Rpa70N (residues 1–122) (mouse, UniProt Q8VEE4 1-122); assay: as above
T5 construct: Rpa70, mouse, residues 1-122 (OBN domain); also called Rpa70N polypeptide; not shown: His6-SUMO, N-terminal, cleaved
T5 sequence (looked up): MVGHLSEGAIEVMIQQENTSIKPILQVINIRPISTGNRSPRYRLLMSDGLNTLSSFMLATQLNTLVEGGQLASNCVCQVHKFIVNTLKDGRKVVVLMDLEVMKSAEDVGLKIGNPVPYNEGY

T1 sequence (P27694 1-422): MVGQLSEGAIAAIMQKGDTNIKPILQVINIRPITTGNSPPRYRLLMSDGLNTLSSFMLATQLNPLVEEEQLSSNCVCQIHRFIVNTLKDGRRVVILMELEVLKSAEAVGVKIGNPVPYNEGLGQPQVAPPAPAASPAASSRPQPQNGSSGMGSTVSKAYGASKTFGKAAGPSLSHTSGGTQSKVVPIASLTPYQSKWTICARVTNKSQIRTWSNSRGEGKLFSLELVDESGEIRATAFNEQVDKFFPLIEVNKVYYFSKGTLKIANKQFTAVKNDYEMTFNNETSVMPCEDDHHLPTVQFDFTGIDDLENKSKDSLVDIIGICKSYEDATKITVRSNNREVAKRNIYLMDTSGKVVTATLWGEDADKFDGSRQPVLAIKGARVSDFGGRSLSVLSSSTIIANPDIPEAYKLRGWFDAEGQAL
T2 sequence (P27694 1-120): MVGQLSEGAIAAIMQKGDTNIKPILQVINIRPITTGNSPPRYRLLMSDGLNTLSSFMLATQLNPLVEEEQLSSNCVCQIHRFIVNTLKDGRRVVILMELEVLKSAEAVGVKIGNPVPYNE

B1: human Dna2 α1OB (residues 1–122) (domain or fragment, UniProt P51530 1-122, looked up)
chain: MEQLNELELLMEKSFWEEAELPAELFQKKVVASFPRTVLSTGMDNRYLVLAVNTVQNKEGNCEKRLVITASQSLENKELCILRNDWCSVPVEPGDIIHLEGDCTSDTWIIDKDFGYLILYPD
notes: Dna2, human, residues 1-122 (α1 helix and OB domain); source: E. coli BL21DE3, purified
B1 showed a Kd [1] of 12 ± 1 µM.

B2: human Dna2 α1 (residues 1–20), polypeptide used in ITC (peptide, UniProt P51530 1-20, looked up)
chain: MEQLNELELLMEKSFWEEAE
notes: Dna2, human, residues 1-20 (α1 helix); also called Dna2 α1 helix; source: E. coli BL21DE3, purified
B2 was tested, and the Kd [2] was 34 ± 7 µM.

In the case of B3, the “fold reduction of bound Rpa by one molar equivalent of (dT)24 ssDNA” value [3] is reported as roughly 4 fold.

B4: binds [4]; binds [5].

B5: GST-tagged mouse Dna2 OB (residues 21–122) (domain or fragment, UniProt Q6ZQJ5 21-122, looked up)
chain: VPRVELLRKKADALFPETVLSRGVDNRYLVLAVETSQNERGAEEKRLHVTASQDREHEVLCILRNGWSSVPVEPGDIVHLEGDCTSEPWIIDDDFGYFILYP
notes: Dna2, mouse, residues 21-122 (OB domain); Cloned into a pGEX-4T vector; also called GST-OB
B5: binds [6].

B6: GST-tagged mouse Dna2 α1 (residues 1–20) (peptide, UniProt Q6ZQJ5 1-20, looked up)
chain: MEPLDELDLLLLEEDGGAEA
notes: Dna2, mouse, residues 1-20 (α1 helix); Cloned into a pGEX-4T vector; also called GST-α1
B6: binds [7].
